Measurements: US20130252987A1, “METHOD OF REGULATING PLASMA LIPOPROTEINS” (MCMASTER UNIVERSITY, priority 2010, published 2013)

Assays:
[1] = system: HepG2 cells; assay: immunoblotting for LDL receptor and PCSK9 in HepG2 cells; conditions: 24 hours
Description: Cells were propagated in 10% FBS-containing DMEM supplemented with 1% penicillin-streptomycin and 0.06% L-glutamine (584 mg/L) at 37° C., 5% CO2. During treatment experiments with human recombinant resistin (Calbiochem, UK) and/or lovastatin (Sigma, Mo.), the media was changed to 1% FBS-containing DMEM. All of the experiments to follow were performed at least three times and representative results are shown. Cells were stimulated with resistin at various doses (0, 10, 25, 50, and 100 ng/mL) for 24 hours or with a single dose at 50 ng/mL resistin. In other experiments, the microsomal triglyceride transfer protein (MTP) inhibitor, CP-346086, was administered at 1.3 nM, either alone or together with resistin (50 ng/mL) for 24 hours. Lovastatin was administered at 1 to 5 μM for 24 hours to stimulate the cells, either alone or in combination with resistin (50 ng/mL). Unless otherwise indicated, all experiments were performed in triplicate in three independent experiments.
Cell lysates collected with RIPA buffer (50 mM Tris, 150 mM sodium chloride, 1% NP-40, 12 mM sodium deoxycholate, 3.5 mM SDS, pH 7.4) and protease inhibitor cocktail (Roche Diagnostics, QC) were analyzed for human LDL receptor and PCSK9 as previously described (Rashid et al. Proc Nall Acad Sci U S A 2005; 102:5374-9). Equivalent amounts of total protein, determined by Bradford reaction was subjected to sodium dodecyl sulfate polyacrylamide gel electrophoresis (SDS-PAGE), transferred onto nitrocellulose membranes (BioRad, CA) and immunoblotted using antibodies against the LDL receptor (Fitzgerald International, CA) and PCSK9 (Cayman Chemicals, MI). Horseradish peroxidase-conjugated antibodies (BioRad, CA) were used as secondary antibodies. Immunoreactive bands were visualized with a chemiluminescence kit (PerkinElmer Life Sciences, MA). The blots were exposed to KODAK Biomax films, and the signal was quantified by densitometry using Quantity One version 4.6.7. software (Bio Rad, CA).
All of the experiments were performed at least three times and representative results are shown. Dose-response experiments were performed in HepG2 cells with 0, 10, 25, 50, 75 and 100 ng/mL of human resistin for 24 hours. Western blots were then performed on cell lysates to detect the cellular expression of LDL receptor protein.

[2] = system: HepG2 cells; assay: cell viability, tryphan blue staining; format: cell-based, human; conditions: 50 ng/mL or 100 ng/mL, 24 or 48 hours
Description: Cell viability was determined with 0.4% tryphan blue (Sigma-Aldrich, ON) staining and calculated using the following formula: % Cell Viability=(number of unstained (living) cells/Total number of cells)×100.
The next question was whether this amount of human resistin is toxic to hepatocytes. Tryphan blue staining of HepG2 cells upon 50 ng/mL of resistin treatment to determine cell viability was performed.

[3] = system: HepG2 cells; assay: apoB and apolipoprotein expression and secretion, immunoprecipitation and Western blot; format: cell-based, human
Description: During experiments in which HepG2 cells were treated with human recombinant resistin (Calbiochem, UK) the media was changed to 1% FBS-containing DMEM. […] In separate experiments, cells were treated with the fatty acid, oleate (100 μM) (Sigma, ON) for 24 hours, with or without human resistin (50 ng/mL) for 24 hours. In other experiments, cells were treated with the 10 μM lactacystin (Cayman Chemical, Ann Arbor, Mich.) for 24 hours to assess intracellular proteosome-dependent apoB protein degradation.
(§1) Horseradish peroxidase-conjugated antibodies (BioRad, Hercules, Calif.) were used as secondary antibodies.
All of the experiments to follow were performed three times and representative results are shown. […] Immunoprecipitation on cell lysates and media, followed by Western blots to detect the cellular expression and secretion of human apoB protein were then performed. The constitutively expressed cellular proteins, beta-actin and albumin were used as internal immunoblot controls to confirm equal protein loading in the apoB immunoblots of cell lysates and media, respectively. […] Treatment with 25 ng/mL resistin further stimulated apoB secretion by approximately 250% compared with untreated cells (FIG. 1A).

[4] = system: HepG2 cells; assay: gas chromatography of hepatocyte lipids; format: cell-based, human; conditions: 50 ng/mL, 24 hours
Description: Lipids from HepG2 cell extracts were quantified by gas chromatography (GC) as described in Sahoo et al. (J. Lipid Res. 45:1122-1131). Briefly, cell extracts were incubated with phospholipase C (Sigma, ON) to remove polar head groups, then extracted in the presence of internal standard by the method of Folch et al. (J Biol Chem 226:497-509). Extracted lipids were passed through a sodium sulfate column to remove aqueous contaminants, and derivatized with Sylon BFT (Supelco, ON) to cap reactive hydroxyl and carboxyl groups. Derivatized lipids were dissolved in hexane and injected onto a Zebron ZB-5 column (Phenomenex, Torrance, Calif.) in an Agilent 6890 GC instrument. Lipoprotein Profiles. HepG2 media from 6-10 cm plates was collected and concentrated using an Amicon Centriprep concentrator 50 K and lipoprotein classes separated by fast protein liquid chromatography (FPLC) on a Superose 6 10/30 gel filtration column (Amersham, UK) followed by inline post-column reaction with either Infinity Triglyceride or Infinity Cholesterol reagent (Thermo Scientific, West Palm Beach, Fla.) and measurement of absorbance @ 500 nm.
To quantify the hepatocyte lipid changes induced by human resistin, gas chromatography (GC) analyses of lipids extracted from harvested hepatocytes either untreated or treated with human resistin (50 ng/mL) for 24 hours was performed.

[5] = system: HepG2 cells; assay: electron microscopy of secreted VLDL fraction; format: cell-based, human; conditions: 50 ng/mL, 24 hours
Description: The VLDL lipoprotein fraction was isolated from HepG2 cell media via ultracentrifugation at density of 1.006 g/mL using a Beckman Optima TL ultracentrifuge and 100.4 TLA rotor (Beckman Coulter, Brea, Calif.). Mean particle size for VLDL was then determined using the Hitachi 7000 electron microscope equipped with a AMT XR-60 digital camera. The fixation process for electron microscopy utilized 1% Os04 in a phosphate buffer at pH 7.4 applied to the VLDL fraction for a 30 minute exposure. A small drop of this solution was placed on a 400 mesh copper grid coated with a carbon film and allowed to stand for 3 minutes or until sample has dried. The fixed VLDL were placed on the electron microscope grid for viewing and digitizing. The captured images were taken at 75 KV using a beam current of 25 uA. Digital Images of the VDL were taken at about 50,000×. The mean particle size was then determined by importing the digital images into NIH image J software.
The secretion of apoB protein by HepG2 cells increased markedly by approximately 8-fold with human resistin treatment, along with the observed increases in secreted VLDL lipids. […] Furthermore, the quantity of VLDL particles found in a representative […] area was increased markedly in resistin-treated samples by a mean of 10-fold.

[6] = system: HepG2 cells; assay: insulin signaling pathway protein expression, Western blot; format: cell-based, human; conditions: 50 ng/mL, 24 hours
Excerpt: as §1
Another important regulator of hepatocyte apoB/VLDL assembly and stability is the intracellular insulin signaling pathway.

B1: human resistin: recombinant lyophilized purified human resistin (Calbiochem); cysteine-rich cytokine, single 12 kDa band (protein)
chain: KTLCSMEEAINERIQEVAGSLIFRAISSIGLECQSVTSRGDLATCPRGFAVTGCTCGSACGSWDVRAETTCHCQCAGMDWTGARCCRVQP
- reduction of LDL receptor protein expression ([1]; 25 ng/mL resistin): 30%
- decrease in cellular LDL receptor protein expression ([1]; 50 ng/mL resistin): 40%
- decrease in cellular LDL receptor protein expression ([1]; 75 ng/mL resistin): 40%
- increase in cellular PCSK9 protein ([1]; resistin 50 ng/mL, with lovastatin 5 μM): 50%
- hepatocyte viability [2]: no marked reduction
- increase of hepatic apoB cellular protein expression and secretion versus control, untreated HepG2 cells ([3]; 10 ng/mL resistin, 24 hours): ~100%
- stimulation of apoB secretion compared with untreated cells ([3]; 25 ng/mL resistin, 24 hours): approximately 250%
- effect on the stimulatory effect of oleate on hepatic cellular apoB expression and secretion ([3]; 50 ng/mL resistin added to 100 μM oleate, 24 hours): doubled
- apoB expression or secretion on addition to lactacystin ([3]; 50 ng/mL resistin added to lactacystin 10 μM, 24 hours): did not further increase
- increase in cellular apoB protein expression versus untreated cells ([3]; 50 ng/mL resistin, 24 hours): approximately 3500%
- increase in secreted apoB versus untreated cells ([3]; 50 ng/mL resistin, 24 hours): 1000%
- apoB secretion above untreated HepG2 cells ([3]; 50 ng/mL resistin, after 48 hours, no restimulation): 100%
- earliest time of increase in apoB protein secretion into HepG2 cell media ([3]; 50 ng/mL resistin, time course): 4 h
- time of maximal cumulative effect on apoB protein expression in the media ([3]; 50 ng/mL resistin, time course): 24 h
- increase in secretion of apoB protein by HepG2 cells ([3]; 50 ng/mL, 24 hour): approximately 8 fold
- apoCI or CIII protein expression ([3]; 50 ng/mL, versus untreated): no difference
- expression of secreted apoE ([3]; 50 ng/mL, versus untreated): increase
- cellular apoB expression and secretion versus that produced by 50 ng/mL resistin ([3]; 100 ng/mL resistin, 24 hours): reduced cellular apoB expression markedly
- increase in cholesteryl ester content [4]: 18%
- increase in free cholesterol content [4]: 3%
- increase in triglyceride content [4]: 24%
- increase in quantity of VLDL particles in a representative 100 cm^2 area [5]: 10 fold
- decrease in expression of IRS-2, ERK, phosphorylated ERK, Akt and serine and threonine phosphorylated Akt [6]: 20-30%
